B1: ZBED3 (parent)
chain: GPGFHAGTSALWRHLRSAHRRELE

Variants of: B1
Assay: protein stability index of a GFP-peptide fusion (GPS, HEK-293T) (PSI 1-6); higher = more stable
Details: c terminus: a fixed tail appended
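Also: lentivirally expressed fusions sorted by FACS into six bins by GFP to DsRed ratio, PSI derived from sequencing read proportions per bin multiplied by bin number.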

Row | Variant | protein stability index
1 | GPGFHAGTSALWRHLRSCHRRELE | 1.79
2 | GPGFHAGTSALWRHLRSYHRRELE | 1.85
3 | GPGFHAGTSALWRHLRSMHRRELE | 1.77
4 | GPGFHAGTSALWRHLRSWHRRELE | 1.63
5 | GPGFHAGTSALWRHLRSRHRRELE | 3.02
6 | GPGFHAGTSALWRHLRSKHRRELE | 2.81
7 | GPGFHAGTSALWRHLRSPHRRELE | 3.65
8 | GPGFHAGTSALWRHLRSSHRRELE | 1.88
9 | GPGFHAGTSALWRHLRSQHRRELE | 2.61
10 | GPGFHAGTSALWRHLRSDHRRELE | 2.02
11 | GPGFHAGTSALWRHLRSLHRRELE | 2.79
12 | GPGFHAGTSALWRHLRSHHRRELE | 2.04
13 | GPGFHAGTSALWRHLRSFHRRELE | 2.07
14 | GPGFHAGTSALWRHLRSIHRRELE | 2.12
15 | GPGFHAGTSALWRHLRSVHRRELE | 1.99
16 | GPGFHAGTSALWRHLRSGHRRELE | 1.89
17 | GPGFHAGTSALWRHLRSEHRRELE | 3.1
18 | GPGFHAGTSALWRHLRSNHRRELE | 2.45
19 | GPGFHAGTSALWRHLRSTHRRELE | 2.47
20 | GPGFHAGTSALWRDLRSAHRRELE | 2.13
21 | GPGFHAGTSALWRTLRSAHRRELE | 2.28
22 | GPGFHAGTSALWRELRSAHRRELE | 2.33
23 | GPGFHAGTSALWRILRSAHRRELE | 1.78
24 | GPGFHAGTSALWRFLRSAHRRELE | 1.68

Row | Variant | protein stability index
25 | GPGFHAGTSALWRNLRSAHRRELE | 2.16
26 | GPGFHAGTSALWRSLRSAHRRELE | 2.2
27 | GPGFHAGTSALWRMLRSAHRRELE | 1.99
28 | GPGFHAGTSALWRQLRSAHRRELE | 2.51
29 | GPGFHAGTSALWRCLRSAHRRELE | 2.17
30 | GPGFHAGTSALWRVLRSAHRRELE | 2.33
31 | GPGFHAGTSALWRGLRSAHRRELE | 2.76
32 | GPGFHAGTSALWRALRSAHRRELE | 2.3
33 | GPGFHAGTSALWRRLRSAHRRELE | 2.32
34 | GPGFHAGTSALWRWLRSAHRRELE | 1.74
35 | GPGFHAGTSALWRKLRSAHRRELE | 2.2
36 | GPGFHAGTSALWRYLRSAHRRELE | 1.98
37 | GPGFHAGTSALWRLLRSAHRRELE | 2.62
38 | GPGFHAGTSALWRPLRSAHRRELE | 2.1
39 | GPGFHAGTSWLWRHLRSAHRRELE | 2.38
40 | GPGFHAGTSYLWRHLRSAHRRELE | 2.31
41 | GPGFHAGTSVLWRHLRSAHRRELE | 2.6
42 | GPGFHAGTSALWRHERSAHRRELE | 1.76
43 | GPGFHAGTSALWRHQRSAHRRELE | 1.78
44 | GPGFHAGTSALWRHNRSAHRRELE | 2.57
45 | GPGFHAGTSALWRHYRSAHRRELE | 2.1
46 | GPGFHAGTSALWRHKRSAHRRELE | 3.15
47 | GPGFHAGTSALWRHWRSAHRRELE | 2.7
48 | GPGFHAGTSALWRHMRSAHRRELE | 2.7

Row | Variant | protein stability index
49 | GPGFHAGTSALWRHTRSAHRRELE | 2.05
50 | GPGFHAGTSALWRHARSAHRRELE | 1.93
51 | GPGFHAGTSALWRHGRSAHRRELE | 1.27
52 | GPGFHAGTSALWRHDRSAHRRELE | 1.87
53 | GPGFHAGTSALWRHIRSAHRRELE | 2.3
54 | GPGFHAGTSALWRHHRSAHRRELE | 2.34
55 | GPGFHAGTSALWRHFRSAHRRELE | 2.16
56 | GPGFHAGTSALWRHRRSAHRRELE | 3.45
57 | GPGFHAGTSALWRHPRSAHRRELE | 1.76
58 | GPGFHAGTSALWRHSRSAHRRELE | 2.21
59 | GPGFHAGTSALWRHLPSAHRRELE | 2.33
60 | GPGFHAGTSALWRHLGSAHRRELE | 1.73
61 | GPGFHAGTSALWRHLHSAHRRELE | 2.17
62 | GPGFHAGTSALWRHLQSAHRRELE | 2.33
63 | GPGFHAGTSALWRHLWSAHRRELE | 1.66
64 | GPGFHAGTSALWRHLMSAHRRELE | 2.97
65 | GPGFHAGTSALWRHLISAHRRELE | 2.12
66 | GPGFHAGTSALWRHLCSAHRRELE | 1.62
67 | GPGFHAGTSALWRHLYSAHRRELE | 1.75
68 | GPGFHAGTSALWRHLTSAHRRELE | 2.23
69 | GPGFHAGTSALWRHLSSAHRRELE | 2.21
70 | GPGFHAGTSALWRHLKSAHRRELE | 2.41
71 | GPGFHAGTSALWRHLDSAHRRELE | 2.25
72 | GPGFHAGTSALWRHLASAHRRELE | 2.45

Row | Variant | protein stability index
73 | GPGFHAGTSALWRHLVSAHRRELE | 1.84
74 | GPGFHAGTSALWRHLNSAHRRELE | 2.34
75 | GPGFHAGTSALWRHLESAHRRELE | 2.41
76 | GPGFHAGTSALWRHLFSAHRRELE | 2.07
77 | GPGFHAGTSALWRHLLSAHRRELE | 1.81
78 | GPGFHAGTSALGRHLRSAHRRELE | 1.64
79 | GPGFHAGTSALVRHLRSAHRRELE | 2.44
80 | GPGFHAGTSALNRHLRSAHRRELE | 2.3
81 | GPGFHAGTSALIRHLRSAHRRELE | 2.07
82 | GPGFHAGTSALRRHLRSAHRRELE | 3.35
83 | GPGFHAGTSALQRHLRSAHRRELE | 2.72
84 | GPGFHAGTSALKRHLRSAHRRELE | 3.18
85 | GPGFHAGTSALYRHLRSAHRRELE | 2.63
86 | GPGFHAGTSALTRHLRSAHRRELE | 2.54
87 | GPGFHAGTSALDRHLRSAHRRELE | 2.92
88 | GPGFHAGTSALPRHLRSAHRRELE | 2.14
89 | GPGFHAGTSALFRHLRSAHRRELE | 2.1
90 | GPGFHAGTSALERHLRSAHRRELE | 3.17
91 | GPGFHAGTSALCRHLRSAHRRELE | 1.45
92 | GPGFHAGTSALHRHLRSAHRRELE | 2.16
93 | GPGFHAGTSALMRHLRSAHRRELE | 1.84
94 | GPGFHAGTSALARHLRSAHRRELE | 3.38
